Molecular target: T1, Csa3b (Sulfolobus islandicus REY15A) (UniProt F0NH47)
T1 sequence: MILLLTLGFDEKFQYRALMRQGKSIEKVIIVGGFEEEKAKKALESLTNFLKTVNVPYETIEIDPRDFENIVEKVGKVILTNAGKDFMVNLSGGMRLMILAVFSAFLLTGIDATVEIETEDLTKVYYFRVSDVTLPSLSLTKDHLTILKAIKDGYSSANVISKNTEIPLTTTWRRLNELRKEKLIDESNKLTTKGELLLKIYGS
Experiment: LSPR
Settings: DNA immobilized, LSPR (OpenSPR, COOH chip, 20 uL/min, 5 min, 1:1 fit; running buffer not stated), DNase I footprinting: 400 ng probe in 40 uL, 30 min at 30 C, DNase I 1 min at …

Substance	Kd (20 uM 5'-CAAAA-3')	Kd (no CAAAA)	Kd
csa1 promoter, full-length (LSPR)	300 nM	4240 nM	
cmr4 (cmr4-alpha) promoter (LSPR)			17.2 nM
